These results are taken from paper PMC2903050 (Journal of molecular biology, 2010).

One may read the Kd as the constant that tells how readily two partners part at equilibrium. The koff is the rate constant with which the complex falls apart. A higher koff goes with fast dissociation. A word on the kon: it is a measure of how fast the partners come together. One may read the stoichiometry N as the number of molecules, sites or subunits per partner or assembly.

Test [1] concerns the target T1, botulinum neurotoxin serotype A light chain residues 1-448 (Clostridium botulinum, BoNT/A1 …, UniProt P0DPI0). As to the kind of experiment: flow cytometry on cells. On the technique in general: In flow cytometry, cells or beads pass a laser one at a time.
Test [2] addresses T1, botulinum neurotoxin serotype A light …. As to the kind of experiment: KinExA. (A kinetic exclusion assay measures how much of one partner remains free in solution.)
Target sequence in this assay (P0DPI0 1-448): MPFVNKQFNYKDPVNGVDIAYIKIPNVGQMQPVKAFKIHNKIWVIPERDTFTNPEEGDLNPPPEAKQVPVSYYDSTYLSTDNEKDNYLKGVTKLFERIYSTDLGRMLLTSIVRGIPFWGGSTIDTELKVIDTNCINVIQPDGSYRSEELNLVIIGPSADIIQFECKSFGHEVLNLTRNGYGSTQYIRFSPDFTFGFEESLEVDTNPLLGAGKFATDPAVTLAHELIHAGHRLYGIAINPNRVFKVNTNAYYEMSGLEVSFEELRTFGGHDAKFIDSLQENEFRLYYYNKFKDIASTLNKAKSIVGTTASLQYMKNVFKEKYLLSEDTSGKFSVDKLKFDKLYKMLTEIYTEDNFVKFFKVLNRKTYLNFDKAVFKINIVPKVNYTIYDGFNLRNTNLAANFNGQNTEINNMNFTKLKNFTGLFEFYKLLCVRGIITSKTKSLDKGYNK
Test [3] deals with truncated BoNT/A Lc containing residues 1-425 (Clostridium botulinum, UniProt P0DPI0). As to the kind of experiment: […].
truncated BoNT/A Lc containing residues 1-425, sequence (P0DPI0 1-425): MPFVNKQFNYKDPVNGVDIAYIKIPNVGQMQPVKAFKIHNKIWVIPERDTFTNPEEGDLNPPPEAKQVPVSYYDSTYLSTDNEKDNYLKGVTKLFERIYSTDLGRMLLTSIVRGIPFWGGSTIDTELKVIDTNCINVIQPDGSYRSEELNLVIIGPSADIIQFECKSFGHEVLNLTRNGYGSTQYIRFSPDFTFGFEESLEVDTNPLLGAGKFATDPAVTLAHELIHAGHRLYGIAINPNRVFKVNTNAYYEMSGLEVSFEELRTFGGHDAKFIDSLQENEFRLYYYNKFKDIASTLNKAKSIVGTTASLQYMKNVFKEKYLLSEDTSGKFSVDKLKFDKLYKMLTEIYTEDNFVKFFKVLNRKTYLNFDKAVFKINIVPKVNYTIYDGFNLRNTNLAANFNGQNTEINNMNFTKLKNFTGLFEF

B1: Aa1 VHH, yeast displayed (VHH)
VHH: AVQLVDSGGGTLQAGKSLRLSCAISGLAFDGGAMGSEHRLTAGAMGWFRQAPGKDREFVAAISPRTDETYYAESLEGRFSVSRDAAATMVFLQADNVRLDDTASYYCAADEDVTPRVMGVIPHADHWGQGTLVTVSS
In the case of B1, in test [1], binding was characterised by a dissociation constant (Kd) of 0.03 nM. This counts as picomolar.

B2: Aa1 VHH, purified (VHH)
VHH: AVQLVDSGGGTLQAGKSLRLSCAISGLAFDGGAMGSEHRLTAGAMGWFRQAPGKDREFVAAISPRTDETYYAESLEGRFSVSRDAAATMVFLQADNVRLDDTASYYCAADEDVTPRVMGVIPHADHWGQGTLVTVSS
B2: in test [2], the affinity, expressed as Kd, was 0.147 nM; the koff was 0.00666 s⁻¹; the kon came out at 4.39e+07 M⁻¹ s⁻¹.

B3: Aa1 VHH, for crystal growing (VHH)
VHH: AVQLVDSGGGTLQAGKSLRLSCAISGLAFDGGAMGSEHRLTAGAMGWFRQAPGKDREFVAAISPRTDETYYAESLEGRFSVSRDAAATMVFLQADNVRLDDTASYYCAADEDVTPRVMGVIPHADHWGQGTLVTVSS
Turning to B3, the “stoichiometry N” value in test [3] was determined as 1.
